Data published in patent US20240342244A1, “Isthmin Protein Therapeutics for the Treatment of Non-Alcoholic Fatty Liver Disease” (The Board of Trustees of the Leland Stanford Junior …, priority 2021, published 2024).

What was measured:
[1] = system: differentiated 3T3-L1 adipocytes; test: 2-deoxy-3H-glucose uptake in differentiated 3T3-L1 adipocytes; type: cell-based; settings: 1 h
Protocol: Glucose uptake. Glucose uptake was performed as previously described (You et al., 2017). Briefly, 2-Deoxy-d-[2,6-3H]-glucose was purchased from PerkinElmer NEN radiochemicals. Fully differentiated adipocytes were washed with KRH buffer and starved in 0.5% BSA in KRH buffer for 4 h. Indicated concentrations of insulin or ISM1 were added at indicated time points. Cells were treated with a mixture of 500 μM 2-deoxy-D-glucose and 1.71 μCimL^−1 2-Deoxy-D-[1,2-3H (N)]-glucose for another 10 min followed by three washes using ice cold KRH buffer containing 200 mM glucose. The passive glucose uptake in the presence of 50 uM CytoB was less than 12% of the total glucose uptake. Cells were solubilized in 1% SDS and radioactivity was measured by liquid scintillation counting.

[2] = system: IGF-I-Receptor β Tyr1135/1136 or Insulin receptor Tyr1150/1151; test: Western blot of phosphorylated insulin and IGF receptors in 3T3-F442A cells; type: cell-based; settings: 100 nM; 2 minutes
Protocol: Western blots and molecular analyses. For western blotting, homogenized tissues or whole-cell lysates, samples were lysed in RIPA buffer containing protease inhibitor cocktail (Roche) and phosphatase inhibitor cocktail (Roche). Cell lysates were centrifuged at 14,000×g for 15 min and supernatants were prepared in 4×LDS Sample Buffer (Invitrogen) and separated by SDS-PAGE and transferred to Immobilon 0.45 μm membranes (Millipore). For Western blotting of plasma samples, 1 μl of plasma was prepared in 2× sample buffer (Invitrogen) with reducing agent, boiled, and analyzed using Western blot against indicated antibody. Protein kinase array (R&D systems ARY003B) was performed according to the manufacturers' description. All antibodies used in this paper are described in STAR methods.

AML12 hepatocytes = test: Lipogenesis assay (3H-acetate incorporation into lipids) in AML12 hepatocytes; type: cell-based, mouse; settings: 24 h
Protocol: Lipogenesis Assay. Primary hepatocytes or AML12 hepatocytes were washed twice with warm PBS and starved in serum-free DMEM overnight. Indicated concentrations of insulin with or without ISM1 were added at the same time. After 24 h, a mixture of 10 μM cold acetate and 2 μCi [3H]-Acetate (#NET003H005MC, PerkinElmer) was added to each well and cells were incubated for another 4 hr. Cells were washed with PBS twice and lysed using 0.1 N hydrogen chloride. Lipids were extracted by 2:1 chloroform-methanol (v/v). After centrifugation at 3000×g for 10 min, the lower phase was transferred to scintillation vials and radioactivity was measured by liquid scintillation counting.

NAFLD mice = test: Therapeutic administration for 14 days in mice with established NAFLD; type: in vivo, mouse
Protocol: Therapeutic ISM1 recombinant protein administration in vivo. All pharmacologic studies using recombinant ISM1 protein were performed in mice with established diet-induced obesity or non-alcoholic fatty liver disease (NAFLD). For all experiments, male C57BL/6J mice purchased from Jax were fed either a high-fat diet (#D12492, Research Diets) or a NAFLD diet (#D09100310, Research Diets) prior to ISM1 protein injections. In all experiments, mice were mock injected with saline for three days prior to protein or drug injections to prevent stress-induced weight loss. Mice were I.P. injected with vehicle (saline) or indicated doses of ISM1 protein diluted in saline. For the 14-day experiments in NAFLD mice, 7-weeks old mice were fed with NAFLD diet for 3 weeks and then mock injected with saline for 3 days prior to protein injections. The induction of lipid accumulation with NAFLD diet was verified by the significant increase in hepatic lipid levels compared with mice on chow diet at the same time point. NAFLD mice were then daily I.P. injected with either vehicle (saline containing 5% DMSO and 10% Kolliphor) or indicated doses of ISM1 protein (500 μg/kg or 5 mg/kg) or with FXR agonist (30 mg/kg, GW4064, Sigma-Aldrich, #G5172) diluted in vehicle (saline containing 5% DMSO and 10% Kolliphor). For the 21-day experiments in HFD mice, mice were mock injected with saline for three days prior to protein injections. Mice were then daily I.P. injected with either vehicle (saline) or 5 mg/kg of ISM1 protein diluted in saline. Metformin (100 mg/kg, Sigma, #317240) was diluted in saline and daily administered by oral gavage. All groups received control injections by I.P. and oral gavage. At the end of the experiments, mice and tissue weights were recorded. Tissues and plasma were collected and frozen for further analyses.
Immunohistochemistry. For H&E staining, livers were formalin-fixed, paraffin-embedded, and sectioned at 6 μm. For hematoxylin and eosin (H&E) staining, sections were deparaffinized and […] with xylenes and ethanol. Briefly, slides were stained with hematoxylin, washed with water and 95% ethanol, and stained with eosin for 30 min. Sections were then incubated with ethanol and xylene, and mounted with mounting medium. For Oil red O stainings, frozen liver tissue slides were fixed with 3% formalin in PBS, washed twice with water, incubated with 60% isopropanol for 5 min and then incubated with Oil Red O solution (3:2 ratio of Oil Red O:H2O) for 20 min. […] Digital images were captured with a Nikon Digital Sight DS-Fi1 color camera and NIS-Elements acquisition software.

[3] = 0.5 mg/kg daily for 14 days, vs vehicle-treated NAFLD mice
[4] = 5 mg/kg ISM1 vs 30 mg/kg GW4064, 14 days
[5] = 5 mg/kg daily for 14 days, vs vehicle-treated NAFLD mice

B1: ISM1: recombinant mouse ISM1 protein with a C-terminal myc-his tag generated in mammalian HEK 293 Expi cells (protein, UniProt A2ATD1 30-454, looked up)
Isthmin-1: SDRQDAAAGNNNLNLESDSTSETSFPLSKEAPEEHQVVHQPFPRQRFPPETGHPSLQRDGPRSFLLDLPNFPDLSKADINGQNPNIQVTIEVVDGPDSEAEKDQHPENKPSWSLPAPDWRAWWQRSLSLARTNSGDQDDKYDSTSDDSNFLSVPRGWDRPAPGHRTFETKEQPEYDSTDGEGDWSLWSVCSVTCGNGNQKRTRSCGYACIATESRTCDRPNCPGIEDTFRTAATEVSLLAGSEEFNATKLFEVDMDSCERWMSCKSEFLKKYMHKVINDLPSCPCSYPTEVAYSTADIFDRIKRKDFRWKDASGPKEKLEIYKPTARYCIRSMLSLESTTLAAQHCCYGDNMQLITRGKGAGTPNLISTEFSAELHYKVDVLPWIICKGDWSRYNEARPPNNGQKCTESPSDEDYIKQFQEAREY
modifications: C-terminal myc-His tag
notes: recombinant mouse ISM1 protein with a C-terminal myc-his tag generated in mammalian HEK 293 Expi cells
- induction of glucose uptake [1]: does not induce glucose uptake
- IGF-R/IR phosphorylation [2]: no phosphorylation
- lipogenesis at supraphysiological insulin (AML12 hepatocytes; 50 nM ISM1 in presence of 200 nM insulin): sufficient to reduce lipogenesis
- insulin-induced lipogenesis (AML12 hepatocytes; 50 and 100 nM ISM1 with 50 nM insulin): reverse the insulin-induced lipogenesis dose-dependently
- fed blood glucose reduced (NAFLD mice; [3]): not
- liver weights reduced (NAFLD mice; [3]): not
- effect on liver weights, blood glucose and histological signs of steatosis compared with benchmark (NAFLD mice; [4]): as potent as the FXR agonist GW4064 treatment
- reversal of hepatic steatosis compared with benchmark (NAFLD mice; [4]): performs equal to the FXR agonist GW4064
- fed blood glucose (NAFLD mice; [5]): reduced
- liver weights (NAFLD mice; [5]): reduced liver weights
- hepatic Fatty Acid Synthase (FAS) protein levels (NAFLD mice; 5 mg/kg, 14 days): reduced hepatic Fatty Acid Synthase (FAS) protein levels
- liver Oil red O staining (NAFLD mice; 5 mg/kg, 14 days): reduced Oil red O staining
- gross liver morphology (NAFLD mice; 5 mg/kg, 14 days, vs vehicle treated NAFLD mice): obvious gross morphological changes in liver size and color
